Test results taken from patent publication US20140120095A1 (Boehringer Ingelheim, published 2014).
Numbering of substitutions follows the chain as printed. One block for each binder: values may come before it.

Columns and labels:
human DLL1 = molecular target: T1, human DLL1 (human, UniProt O00548 18-545, limits assumed); experiment: binding ELISA on coated recombinant human DLL1, OD 405 nm
T1 construct: also called hDLL1
T1 sequence (looked up): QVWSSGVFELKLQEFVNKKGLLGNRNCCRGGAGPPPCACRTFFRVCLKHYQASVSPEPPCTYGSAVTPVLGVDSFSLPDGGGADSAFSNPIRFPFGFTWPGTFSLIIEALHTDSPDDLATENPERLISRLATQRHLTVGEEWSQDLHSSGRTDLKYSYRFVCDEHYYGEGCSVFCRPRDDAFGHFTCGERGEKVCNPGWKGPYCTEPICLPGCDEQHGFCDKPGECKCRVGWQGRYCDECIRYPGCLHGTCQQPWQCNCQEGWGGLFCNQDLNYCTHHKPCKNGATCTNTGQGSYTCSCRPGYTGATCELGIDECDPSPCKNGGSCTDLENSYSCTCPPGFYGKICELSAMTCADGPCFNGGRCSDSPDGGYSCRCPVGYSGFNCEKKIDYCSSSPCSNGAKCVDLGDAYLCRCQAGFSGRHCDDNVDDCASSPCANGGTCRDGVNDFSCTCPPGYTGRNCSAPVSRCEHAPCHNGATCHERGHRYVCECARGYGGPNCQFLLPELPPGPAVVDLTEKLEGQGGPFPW
Description: (§1) Absence of binding to homologous ligands human DLL1 and human Jagged-1 is assessed via solid phase binding assay (ELISA). In brief, human DLL1 (Alexis, San Diego, Calif., USA) and human Jagged-1 (Alexis, San Diego, Calif., USA) are coated overnight at 4° C. at 1 μg/mL in a 96-well MaxiSorp plate (Nunc, Wiesbaden, Germany). Wells are blocked with a casein solution (1% in PBS). VHHs are applied as dilution series and binding is detected using a mouse anti-myc (Roche) and an anti-mouse-AP conjugate (Sigma, St. Louis, Mo., USA).

recombinant mouse DLL4 [1] = molecular target: T2, recombinant mouse DLL4 (mouse, UniProt Q9JI71 27-532); experiment: binding ELISA, coated rmDLL4
T2 construct: extracellular domain; also called rmDLL4; mDLL4
Description: (§2) In order to determine cross-reactivity to mouse DII4 a binding ELISA is performed. […] Wells are blocked with a casein solution (1% in PBS). VHHs are applied as dilution series and binding is detected using a mouse anti-myc (Roche) and an anti-mouse-AP conjugate (Sigma, St Louis, Mo., USA) (FIG. 7 A-H). As reference, binding to human DII4 is measured.

[2] = molecular target: T3, human DLL4 overexpressed on cells (human, UniProt Q9NR61 27-685); experiment: FACS titration on HEK293-hDLL4 cells, MCF
T3 construct: full length human DLL4 on CHO or HEK293 cells; also called CHO-hDLL4; CHO-hDII4
Description: (§3) In order to determine the cynomologus cross-reactivity of the VHHs, a FACS binding experiment is performed. Cynomolgus DII4 expressing HEK293 cells (transient or stable transfection) are used for a titration binding experiment of the VHHs. After a 30 minutes incubation on ice, all samples are washed and detection is performed by applying anti-c-myc˜Alexa647 (Santa Cruz Biotechnology, Santa Cruz, Calif., USA). Human and mouse DII4 overexpressing HEK293 cells are taken as reference. The mean MCF value is determined on the FACS Array and used for calculation of the EC₅₀ value (see FIG. 9 A-E).

human Jagged-1 = molecular target: T4, human Jagged-1 (human, UniProt P78504 34-1067, limits assumed); experiment: binding ELISA on coated recombinant human Jagged-1, OD 405 nm
T4 construct: also called hJagged-1; hJAG1
Description: as §1

recombinant human DLL4 [3] = molecular target: T5, recombinant human DLL4 (human, UniProt Q9NR61 25-522); experiment: competition AlphaScreen, biot-hDLL4/hNotch1-Fc
T5 construct: also called rhDLL4; hDLL4
Description: In brief, 1 nM biotinylated human DII4 is captured on streptavidin-coated donor beads (20 μg/mL), while 0.4 nM of the receptor human Notch1 (as a Fc fusion protein) is captured on anti-human Fc VHH-coated acceptor beads (20 μg/mL). Both loaded beads are incubated together with a dilution range of the competing VHH (FIG. 4 A-E).

recombinant human DLL4 [4] = molecular target: T5, recombinant human DLL4; experiment: binding ELISA, coated rhDLL4
Description: as §2

[5] = molecular target: T3, human DLL4 overexpressed on cells; experiment: competitive FMAT, hNotch1-Fc on CHO-hDLL4
[6] = molecular target: T6, cynomolgus DLL4 overexpressed on cells (cynomolgus, UniProt Q9NR61 27-685 (human entry)); experiment: FACS titration on HEK293-cDLL4 cells, MCF
T6 construct: also called cyno DII4; cDLL4
T6 chain: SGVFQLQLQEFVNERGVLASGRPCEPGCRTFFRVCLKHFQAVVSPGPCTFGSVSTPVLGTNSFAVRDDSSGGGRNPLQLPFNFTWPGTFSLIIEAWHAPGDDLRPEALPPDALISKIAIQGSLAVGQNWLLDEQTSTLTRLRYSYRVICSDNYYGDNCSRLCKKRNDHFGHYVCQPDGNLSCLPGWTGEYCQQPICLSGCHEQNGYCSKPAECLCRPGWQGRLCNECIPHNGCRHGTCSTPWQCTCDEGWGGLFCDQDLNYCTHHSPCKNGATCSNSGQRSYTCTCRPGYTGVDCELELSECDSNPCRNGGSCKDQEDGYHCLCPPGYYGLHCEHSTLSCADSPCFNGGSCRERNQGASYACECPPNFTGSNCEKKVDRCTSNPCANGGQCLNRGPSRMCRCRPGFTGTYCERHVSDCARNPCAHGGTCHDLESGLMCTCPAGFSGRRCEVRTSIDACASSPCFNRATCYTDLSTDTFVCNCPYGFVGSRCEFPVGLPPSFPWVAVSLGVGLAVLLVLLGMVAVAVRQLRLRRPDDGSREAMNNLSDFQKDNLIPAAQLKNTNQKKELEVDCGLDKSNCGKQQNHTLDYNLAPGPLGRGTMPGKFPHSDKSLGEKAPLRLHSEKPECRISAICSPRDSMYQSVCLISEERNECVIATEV
Description: as §3

[7] = molecular target: T7, mouse DLL4 overexpressed on cells (mouse, UniProt Q9JI71 27-686); experiment: competitive FMAT, hNotch1-Fc on CHO-mDLL4
T7 construct: whole, on cells; also called CHO-mDLL4; CHO-mDII4

recombinant human DLL4 [8] = molecular target: T5, recombinant human DLL4; experiment: competition ELISA, biot-hDLL4 to coated hNotch1-Fc
Excerpt: Residual binding of biotinylated human DII4 is detected using horseradish peroxidase (HRP) conjugated extravidin (Sigma, St. Louis, Mo., USA) (FIG. 3 A-C). Human DII4 is biotinylated as described above.

recombinant human DLL4 [9] = molecular target: T5, recombinant human DLL4; experiment: SPR Biacore T100, hDLL4 on chip, VHH/Fab injected
Description: Kinetic analysis to determine the affinity of the DII4-VHH interaction is performed by Surface Plasmon Resonance (SPR) on a Biacore T100 instrument. […] Purified VHHs or Fab fragment are injected for 2 minutes at different concentrations (between 10 and 300 nM) and allowed to dissociate for 20 min at a flow rate of 45 μl/min. Between sample injections, the surfaces are regenerated with 10 mM glycine pH1.5 and 100 mM HCl. HBS-N (Hepes buffer pH7.4) is used as running buffer. If possible, data are evaluated by fitting a 1:1 interaction model (Langmuir binding) onto the binding curves. The affinity constant KD is calculated from resulting association and dissociation rate constants (kₐ) and […].

[10] = molecular target: T8, recombinant human VEGF165 (human, UniProt P15692-4 27-191, biotinylated in the competition assays); experiment: AlphaScreen, hVEGF165/hVEGFR2-Fc competition, -HSA
T8 construct: Bought protein; also called hVEGF165; rhVEGF165

[11] = molecular target: T8, recombinant human VEGF165; experiment: AlphaScreen, hVEGF165/hVEGFR1-Fc competition, -HSA
[12] = molecular target: T9, human DLL4, full length, overexpressed on cells (human, UniProt Q9NR61 27-685); experiment: FMAT, hNotch1-Fc on CHO-hDLL4, -HSA
T9 construct: CHO cells in FMAT, HEK293 cells in the reporter assay; also called hDLL4; CHO-hDLL4

[13] = molecular target: T10, mouse DLL4, full length, overexpressed on CHO cells (mouse, UniProt Q9JI71 27-686); experiment: FMAT, hNotch1-Fc on CHO-mDLL4, -HSA
T10 construct: whole, on cells; also called mDLL4; CHO-mDLL4

recombinant mouse DLL4 [14] = molecular target: T2, recombinant mouse DLL4; experiment: binding ELISA on coated recombinant mouse DLL4, OD 405 nm
Description: as §2

T2 sequence (Q9JI71 27-532): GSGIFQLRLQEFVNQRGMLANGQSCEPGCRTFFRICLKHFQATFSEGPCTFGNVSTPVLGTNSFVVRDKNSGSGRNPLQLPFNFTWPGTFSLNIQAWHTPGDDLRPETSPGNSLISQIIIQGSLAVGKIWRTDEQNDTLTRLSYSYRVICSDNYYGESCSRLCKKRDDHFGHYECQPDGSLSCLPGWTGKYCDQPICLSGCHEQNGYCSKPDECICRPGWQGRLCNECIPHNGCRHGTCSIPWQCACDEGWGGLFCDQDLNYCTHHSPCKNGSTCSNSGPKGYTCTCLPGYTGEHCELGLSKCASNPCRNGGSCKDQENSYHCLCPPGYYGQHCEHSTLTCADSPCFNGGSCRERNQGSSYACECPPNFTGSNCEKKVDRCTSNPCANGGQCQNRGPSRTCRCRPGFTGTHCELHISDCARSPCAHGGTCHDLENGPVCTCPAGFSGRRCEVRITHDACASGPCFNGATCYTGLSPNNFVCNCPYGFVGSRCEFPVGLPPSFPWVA
T8 sequence (P15692 other isoform, or with tags, fused parts or gaps): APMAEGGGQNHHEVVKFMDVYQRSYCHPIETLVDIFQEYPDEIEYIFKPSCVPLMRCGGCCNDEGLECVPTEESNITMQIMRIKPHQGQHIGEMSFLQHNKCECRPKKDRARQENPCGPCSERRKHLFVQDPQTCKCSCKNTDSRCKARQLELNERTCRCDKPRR
T7 sequence (Q9JI71 27-686): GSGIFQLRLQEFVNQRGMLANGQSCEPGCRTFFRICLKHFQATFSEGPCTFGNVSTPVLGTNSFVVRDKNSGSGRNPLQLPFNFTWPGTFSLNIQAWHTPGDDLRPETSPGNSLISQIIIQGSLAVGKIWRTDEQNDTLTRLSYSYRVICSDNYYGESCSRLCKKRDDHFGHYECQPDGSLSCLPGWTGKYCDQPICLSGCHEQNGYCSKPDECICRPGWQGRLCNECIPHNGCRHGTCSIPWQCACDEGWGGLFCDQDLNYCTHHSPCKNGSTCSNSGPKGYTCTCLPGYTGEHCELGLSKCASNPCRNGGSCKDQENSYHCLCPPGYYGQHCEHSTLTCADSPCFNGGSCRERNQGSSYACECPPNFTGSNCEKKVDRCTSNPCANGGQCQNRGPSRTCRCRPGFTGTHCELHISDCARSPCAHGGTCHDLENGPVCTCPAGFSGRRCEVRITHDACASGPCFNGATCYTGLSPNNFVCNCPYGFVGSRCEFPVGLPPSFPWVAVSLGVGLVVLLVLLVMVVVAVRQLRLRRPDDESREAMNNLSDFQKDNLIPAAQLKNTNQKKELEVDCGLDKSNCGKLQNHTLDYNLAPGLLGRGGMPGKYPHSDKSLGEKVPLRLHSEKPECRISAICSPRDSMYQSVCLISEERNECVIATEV

B1: DLLBII55D12 (VHH)
VHH: EVQLVESGGGLVQPGGSLRLSCAASGFTFDDYAIGWFRQAPGKEPEGISCISSSGGITYYADSVKGRFTISRDNAKNTVYLQMNSLKPEDTAVYYCATPGIAACRGIHYTGQGTQVTVSS
binding result (human DLL1): no binding (tested: 2.5e-7 M)
EC50 (recombinant mouse DLL4 [1]): 30 nM
EC50 (read off the curve) [2]: ~7 nM
binding result (human Jagged-1): no binding (tested: 2.5e-7 M)
IC50 (recombinant human DLL4 [3]): 2.3 nM
EC50 (recombinant human DLL4 [4]): 13.1 nM
IC50 [5]: 39.1 nM
EC50 (read off the curve) [6]: ~6 nM
IC50 [7]: 41 nM
IC50 (recombinant human DLL4 [8]): 12.3 nM

B4: A1 (bispecific antibody)
chain: VQLVESGGGLVQPGGSLRLSCAASGRTFSSYSMGWFRQAPGKEREFVVAISKGGYKYDAVSLEGRFTISRDNAKNTVYLQINSLRPEDTAVYYCASSRAYGSSRLRLADTYEYWGQGTLVTVSSGGGGSGGGGSGGGGCGGGGSGGGGSGGGGSGGGGSEVQLVESGGGLVQPGGSLRLSCAASGRTFSSYAMAWYRQAPGKEREYVAAIRWSGGTAYYADSVKGRFTISRDNAKNTVYLQMNSLRPEDTAVYYCANRAPDTRLAPYEYDHWGQGTLVTVSS
modifications: PEGylated at the Cys at position 15 of the 35 Gly-Ser linker
notes: VEGFBII038 (N-terminal E missing) - 35GS(Cys15) - DLLBII018
% inh [10]: 100%
IC50 [10]: 0.07 nM
% inh [11]: 80%
IC50 [11]: 0.1 nM
% inh [12]: 102%
IC50 [12]: 6.7 nM
% inh [13]: 100%
IC50 [13]: 3.4 nM

B5: A3 (bispecific antibody)
chain: VQLVESGGGLVQPGGSLRLSCAASGRTFSSYSMGWFRQAPGKEREFVVAISKGGYKYDAVSLEGRFTISRDNAKNTVYLQINSLRPEDTAVYYCASSRAYGSSRLRLADTYEYWGQGTLVTVSSGGGGSGGGGSGGGGCGGGGSGGGGSGGGGSGGGGSEVQLVESGGGLVQPGGSLRLSCAASGIRFISMAWYRQAPGKQRELVARISSGGTTAYADSVKGRFTISRDNSKNTVYLQMNSLRAEDTAVYYCNTFSSRPNPWGQGTLVTVSSGGGGSGGGGSGGGGSGGGGSGGGGSGGGGSGGGGSEVQLVESGGGLVQPGGSLRLSCAASGRTFSSYAMAWYRQAPGKEREYVAAIRWSGGTAYYADSVKGRFTISRDNAKNTVYLQMNSLRPEDTAVYYCANRAPDTRLAPYEYDHWGQGTLVTVSS
modifications: PEGylated at the Cys at position 15 of the 35 Gly-Ser linker
notes: VEGFBII038 - 35GS(Cys15) - VEGFBII032 - 35GS - DLLBII018
% inh [10]: 100%
IC50 [10]: 0.01 nM
% inh [11]: 97%
IC50 [11]: 0.02 nM
% inh [12]: 97%
IC50 [12]: 16.1 nM
% inh [13]: 95%
IC50 [13]: 7.9 nM

The remaining lines, values ahead:

binding result (human DLL1): no binding (tested: 2.5e-7 M)
EC50 (recombinant mouse DLL4 [1]): 244 nM
EC50 (read off the curve) [2]: ~6 nM
binding result (human Jagged-1): no binding (tested: 2.5e-7 M)
IC50 (recombinant human DLL4 [3]): 5.4 nM
Kd (recombinant human DLL4 [9]): 45 nM
koff (recombinant human DLL4 [9]): 0.0049 s⁻¹
kon (recombinant human DLL4 [9]): 110000 M⁻¹ s⁻¹
EC50 (recombinant human DLL4 [4]): 44.3 nM
IC50 [5]: 28.7 nM
EC50 (read off the curve) [6]: ~6 nM
IC50 [7]: 49.6 nM
IC50 (recombinant human DLL4 [8]): 33.9 nM
B2: DLLBII56C04 (VHH)
VHH: B1 VHH with A23T, D31V, G56S, I70T, N74S, T110W

binding result (human DLL1): no binding (tested: 2.5e-7 M)
EC50 (recombinant mouse DLL4 [1]): 83.4 nM
EC50 (read off the curve) [2]: ~10 nM
binding result (human Jagged-1): no binding (tested: 2.5e-7 M)
IC50 (recombinant human DLL4 [3]): 2.2 nM
EC50 (recombinant human DLL4 [4]): 7.9 nM
IC50 [5]: 53.9 nM
EC50 (read off the curve) [6]: ~10 nM
IC50 [7]: 49.5 nM
IC50 (recombinant human DLL4 [8]): 17.3 nM
B3: DLLBII57C11 (VHH)
VHH: B1 VHH with A23T, G56S, Y60D, T110W

% inh [12]: 102%
IC50 [12]: 3.6 nM
% inh [13]: 100%
IC50 [13]: 6.7 nM
B6: DLLBII039 (VHH)
VHH: EVQLVESGGGLVQPGGSLRLSCAASGFTIGSYDMSWVRRAPGKGPEWVSSISSGGGSTYYADYVKGRFTISRDNAKNTLYLQMNSLRPEDTAVYYCAADRYIWARQGEYWGAYEYDYWGQGTLVTVSS

binding result (human DLL1): no binding (tested: 2.5e-7 M)
binding result (human Jagged-1): no binding (tested: 2.5e-7 M)
binding result (recombinant mouse DLL4 [14]): no binding (tested: 2.5e-7 M)
IC50 (recombinant human DLL4 [3]): 0.4 nM
EC50 (recombinant human DLL4 [4]): 1.4 nM
B7: DLLBII07A02 (VHH)
VHH: EVQLVESGGGLVQAGGSLRLSCAASGSTFNSYAMGWYRQAPGKQREWVAAFSTGGSTNYADSVKGRFTISRDNAKNTVYLQMNSLKPEDTAVYYCFYSGSYYYPTDVFEYDYWGQGTQVTVSS
